Data as given in publication PMC1781754 (2000).

T1: IL-5 receptor alpha/beta (Homo sapiens, UniProt Q01344)
T1 chain 1: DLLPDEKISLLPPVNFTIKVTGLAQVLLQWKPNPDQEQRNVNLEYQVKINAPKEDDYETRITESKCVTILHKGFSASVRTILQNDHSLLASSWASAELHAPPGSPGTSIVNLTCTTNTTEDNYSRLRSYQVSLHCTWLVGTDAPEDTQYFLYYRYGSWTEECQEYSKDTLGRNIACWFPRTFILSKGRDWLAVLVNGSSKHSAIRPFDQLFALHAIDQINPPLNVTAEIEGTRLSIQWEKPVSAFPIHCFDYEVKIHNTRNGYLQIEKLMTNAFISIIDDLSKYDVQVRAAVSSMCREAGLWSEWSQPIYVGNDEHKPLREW
T1 chain 2: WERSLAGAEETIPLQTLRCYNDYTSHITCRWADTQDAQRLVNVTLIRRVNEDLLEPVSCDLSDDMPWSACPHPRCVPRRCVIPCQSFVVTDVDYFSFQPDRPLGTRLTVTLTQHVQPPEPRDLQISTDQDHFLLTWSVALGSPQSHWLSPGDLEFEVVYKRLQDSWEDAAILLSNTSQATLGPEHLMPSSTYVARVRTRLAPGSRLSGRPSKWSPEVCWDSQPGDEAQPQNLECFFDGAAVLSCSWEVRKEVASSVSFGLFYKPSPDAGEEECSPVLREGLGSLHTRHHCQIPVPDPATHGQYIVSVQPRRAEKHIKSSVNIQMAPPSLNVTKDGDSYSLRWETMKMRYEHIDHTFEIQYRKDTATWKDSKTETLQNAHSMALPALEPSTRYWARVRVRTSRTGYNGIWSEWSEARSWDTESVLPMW


Biological target: T1, IL-5 receptor alpha/beta
Assay: radioligand displacement

| Ki [nM] | Binder |
| --- | --- |
| 0.75 | IL-5 (protein) IPKQSATLRALVRETLTLLSTHRTLLKGNETLRISVPAHKNHQLCIEEIFQGIDTLKNQTTQGEALATLFQNLSLIKKHIDLQKQKCGEERRRVKQFLDYLQEFLAVINTEWTIEG |
| 0.17 | IL-5 (protein) MEIPMSTVVKETLTQLSAHRALLTSNETMRLPVPTHKNHQLCIGEIFQGLDILKNQTVRGGTVEMLFQNLSLIKKYIDRQKEKCGEERRRTRQFLDYLQEFLGVMSTEWAMEG |
